Reference: patent US20130267584

Legend:
[1] = biological target: full-length TFPI (fl-TFPI, TFPI alpha) (Homo sapiens) (UniProt P10646); experiment: SPR; conditions: biotinylated, nucleotide sequence identical to BAX 499; ka 6.7e7 1/Ms, kd 6.6e-4 1/s; 37 C, HBS pH 7.4, 0.1% P20, 3 mM CaCl2; aptamer immobilized
[2] = biological target: full-length TFPI (fl-TFPI, TFPI alpha) (Homo sapiens) (UniProt P10646); experiment: inhibition; conditions: PEG

Sequence of full-length TFPI (fl-TFPI, TFPI alpha) (Homo sapiens) (P10646 29-304): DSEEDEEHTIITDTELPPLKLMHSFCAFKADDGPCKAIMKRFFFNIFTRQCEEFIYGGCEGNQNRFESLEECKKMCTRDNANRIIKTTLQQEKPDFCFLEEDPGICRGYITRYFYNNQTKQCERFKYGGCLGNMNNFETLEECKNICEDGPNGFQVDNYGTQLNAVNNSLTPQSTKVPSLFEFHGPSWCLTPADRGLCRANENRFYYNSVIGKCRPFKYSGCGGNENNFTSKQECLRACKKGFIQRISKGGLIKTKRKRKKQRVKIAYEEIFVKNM

Row | Substance | Kd [1] | Kd ([2]; apparent Kd from relief of TFPI inhibition of TF/FVIIa, 12 nM TFPI, FXa independent, TFPI source not stated in this example) | activity ([2]; aptamer giving about 50% recovery of extrinsic FXase activity with 3 nM TFPI, 75-80% recovery at saturation) | EC50 ([2]; extrinsic tenase assay at 0.25 nM TFPI, maximal reversal 58% at 1000 nM, EC50 rises with TFPI level)
1 | ARC28635 | 0.015 nM | – | – | –
2 | BAX 499 | – | 1.2 nM | 50 nM | 12 nM
